Reference: the DeepSol protein solubility set

experiment: soluble on expression in E. coli; label from the status in PepcDB or PDB records

Row | Sequence | soluble on expression in E. coli
1 | MGSDKIHHHHHHMKRRPTINDVAKLAGVSISTVSRYLKDPSQVSEKLGERIREAIKKLGYKPNKIAQGLRTGDSKMIGFIVPDITNPAFLTIVKGAEDFLRKKGYSFIIGGTDHKSKDEVVILESFIFHNVDGVIVTCTGYENKALKELIERYHLKLVFVDRRYPGIDAPYIGVDNFGGVARMVDYLVETGHRSFAYLCGDMTSTAKERLEGFLDRMKKYKIKDYQVLYGEFTFESGYKLTKRLSKIPDAIIAGNDLMAFGVIEALKERGLVVPEDVSVTGFDDMFFSKYYKPSLTTVRQDLYEMGKQAGKVLFALISGKKIRKKEYILPTEIVIRDSVKERRA | not soluble
2 | MNTKPKTIATSSTLELPKLHFQYDNTTTTFTEEEKLIDLKPTSEANYVKFWYNIVRNTYSQTHTNGSPVKPYLVANIERTIDTRLGEVFLHKKERSEHWASIAWFFNIDVKGKLVEKIIIRMSGIEELILNSGTTQIGENLNLISKSTRIPIEQNLTIDNPQLEVFYIMALWTISLDARAFKADLEDGINSESFSVEVFWKSKQDHNQTTISI | not soluble
3 | LGEALNIYTPHRIVAFDNSNIQGTNPVSAMIVFIDGKPYKKEYRKYKIKTVTGPDDYGSMREVVRRRYTRVLRENLPLPDLIIIDGGKGQINAARDVIENELGLDIPIAGLAKDEKHRTSNLLIGDPLEVAYLERNSQEFYLLQRIQDEVHRFAI | not soluble
4 | MSEMTPREIVSELDQHIIGQADAKRAVAIALRNRWRRMQLQEPLRHEVTPKNILMIGPTGVGKTEIARRLAKLANAPFIKVEATKFTEVGYVGKEVDSIIRDLTDSAGGAIDAVEQNGIVFIDEIDKICKKGEYSGADVSREGVQRDLLPLVEGSTVSTKHGMVKTDHILFIASGAFQVARPSDLIPELQGRLPIRVELTALSAADFERILTEPHASLTEQYKALMATEGVNIAFTTDAVKKIAEAAFRVNEKTENIGARRLHTVMERLMDKISFSASDMNGQTVNIDAAYVADALGEVVENEDLSRFIL | soluble
5 | MGSDKIHHHHHHMQLLGPTSNTFISQRLRLHYVDWGNADKPPLLLVHGGRDHCRSWDWTAEALREDWHIIALDHRGHGDSQWTQDGNYRTMDLVYDVAQLIHQLDLAPVTIVSHSWGANTSLRYAGLFPENVRKIVAIEGLFPTPEREALMKDVPFARRVREFIVEKRKAAGRLPRRYATLEDAYARMKGENPYLTDAQARHLTLHGINRNEDGTFSWKFDPHLNVDGAPYDISTDQRNELWGAITCPTLLLNGADSWAGNPDRNGMAQHFRNAQVVEFENAGHWLHHDQFDRFIATLRDFL | not soluble
6 | MSLRKFWHVGINVTDMDKSIDFYRRIGFEVVQDREVEDSNLARAFMVEGASKLRFAHLRLNDSPDEAMLDLIEWRDARSEGRAQSDLVHPGLCRFSILTDDIDAEYARLADDGVQFLHAPQTIMGPDGVKGWRLLFARDPDGTLFHFAELVGQAATEGHHHHHH | not soluble
7 | MGSDKIHHHHHHMPQDRPTAAQLWSGEISFFSLDTDLIQSAGYSFDAGVLNQLPQVFPKTMQLLLTEVTAREIVSHLMKSVTQAMGEFRKGSDTLKRSVGIDMDQIDKLFEALSVVSSAEAVFRERVDSYAERCRGEVLPIGGGDMMPRIFERYFAGLPPFGARKDKKAEFPDAMSLLLLEDYARDHGTRGVVASRDEGWSEFAGKSEYLYCVKSLDALIALFEATGEHAKTLADRIASAVEDENSFVRAALLDGFRTHIHESSWNVENVYSGVVPRVEAATCEADVISHVLQSDRTKVWNLEEDKSVWVVELTASLTVEVQIDVTFYVWDAIDREEMELDTQTVRRKTNIEVKAFLTVGGAETEVDPAKWDVGVEIAPGQYEIDVGEVEPEYSGD | not soluble
8 | MKFMQYTEKVMQHFMNPHNVGVIENPDGYGKVGNPSCGDIMEIFIKVDNNIISDVKFRTFGCASAIASSSISTDMIIGKTVEEALKLTNKQVVDELGGLPAVKMHCSVLAEEAIKMAIEDYISKRDGKLEHHHHHH | soluble
9 | MQVFCFTPKGEVVKLPRGATPIDFAFAIHTRIGMACVGAKVDHMRVPLWTRLKNGQSVEVITAEGQSPQATWLEHHHHHH | not soluble
10 | FAKQKKESVISAISTVNPQELKVPSSNLTTALAGRMSGLIAFQTTGEPGKDNAQFFVRGATTFGYKKDPLILIDNIELSTDDLARLNVDDIAQFSIMKDATATALYGARGANGVILVTTKQGVAG | not soluble
11 | GPVDEVSFHSVVQQLKARQQATDEQLEELQEAFAKVQERNSVFSDWLKISAMLCAATLALSQVVKMAKAVKQMVKPDLVRVQLDEQEQGPYNETARVKPKTLQLLDIQGPNPVMDFEKYVAKHVTAPIGFVYPTGVSTQTCLLVRGRTLVVNRAMAESDWTSIVVRGVTHARSTVKILAIAKAGKETDVSFIRLSSGPLFRDNTSKFVKAGDVLPTGAAPVTGIMNTDIPMMYTGTFLKAGVSVPVETGQTFNHCIHYKANTRKGWSGSALLADLGGSKKILGIHSAGSMGIAAASIVSQEMIRAVVNAFEPQ | soluble
12 | MGSDKIHHHHHHMMAEALQRENPSGFEGSVAGLPLTDVIQLKGQNRFSGCIAVEYRERQGMIFFRDGDIIHAEQGKLMGEMALYEIIRWPGGRFNIQPKVTTTSRTIQQSISFLLLEAHRLMDEEQAAVRADEGTRREEAAAPAAVQNRMSAVAERIVRIAGVSYAVLMKKDGTPLEDDSFEAEVLSAKGMSLAGIGSRLGELFGLDEVKSAAVHARGKQILLFEAKNHYVSIAVRGDSSLAHVENEIRSTFAGRK | not soluble
13 | GMPQHDKSRLVRIDTGPMINPVAGKPSRPIAGDASFRTVTAFEGGQGKVESGVWESTSGSFQSNTTGYIEYCHIIEGEARLVDPDGTVHAVKAGDAFIMPEGYTGRWEVDRHVKKIYFVTHLA | soluble
14 | MLERIANIQKKLSKSIVERKINEVRKVAAVDVSYKEEKARAALVITTFPEGEVLKTKVIETTVSFPYIPTFFFLRETKPILIATKGETFDVLIVEGHGKAHPRGYGLASHIGVVLRKPTIGVAKRLLKNTPKDTYKKVGKVYVSVGNLITLEDATKIIRAILDESGYPKPLKLADKLSKGRIYEVKNTPSPNRSRKKRGNRGKDNNNSQGNLEHHHHHH | soluble
15 | MSLLLPANEQRPVVDIFVEGRRISAREGETIAAALLNAGIVPFRRTPVSGQPRAPLCLMGVCFECLVEVDGAQNVQSCMVRVNAGMQVGLPTGARRAGDGEGHHHHHH | not soluble
16 | MTAMPRIAFLASPAEPAVAARARLVQRYGDHALHDADIVCALGGDGFMLQTLHRHGAADKPVFGMKLGSVGFLMNQYRDDEDDLLARLQRAEPAHLRPLEMLVQTESGTSAGSLAYNEVSLLRQTRQAAHLSVDLNGQTRIAELIGDGVMVATPAGSTAYNYSAHGPILPLGSHTLALTPIAPYRPRRWRGAILKADTEVRFRVLDPYKRPVSVTADSHEIRDVVEVTIRESTERRVTLLFDPEHNLEERIFSEQFAVLEHHHHHH | not soluble
17 | MKEVLFISEMERGRAEIESRVSNIKTTQDFGYREKIKEKKDASTAYAACISELLLEEKVKKIAVAYDFPIFYSNYLTEAGFTIVPVKSPFRKMRSVKGPEEIEAIKYAQMAGEKAMEAAITLIADAEEKDGVLYFEGQVLTGAKVNSVIDHTLLDFGCEAEETIVSCGEDTSNPHGTTEGPLRANAPIILDIFPRSKKKRYFADMTRTVLRGEASEKLKEMYETVLVAQQKALEMVKPGIHSSEIHRAVCDLFEARGYHTYRSGSKAGFTHSTGHGVGLDIHELPSVGESGVLLETGNVITIEPGLYYPGIGGIRLEDMVLVTKTGYENFTGLEKKFVLKSFYNLEHHHHHH | not soluble
18 | MDLQSTPLKGVVRSSEDGLFYLFPIQSLSTLQEMKGHLTCAIDVLSNPDESDVEKRLDAVRTLNSLVAALSVNDGDHYDVIDTAFEEIRE | not soluble
19 | GPGSMIEADVIRLNMEVEAAAARNADLSREVARLREELANSGLHNMDRTLVITEGTQTDSGMLREVALDLDDILFEVSELLFRLYPASSLDLSVRRDAQSSQLNDLSQRCLREVRSLKAAWEMKLDGYNQFISNIQRSQVDYHRSLDSKECQLRRKQQECDVLVGENARLSTLCSELESQLKTTQEAATRAEEQVGRLLQQTADLEAERRRLLDREAAMANTLVALRAECAFNPWSSLVGVKEAATTIESNGQLPSVREQAVAVTKAHIKPPGAVSASDVAMAFQGLDLDGQLPHMCVEPESVVDYYCKVKHSSPTRSLM | soluble
20 | MVADMAGSSEKFKIVLKPVTAEAVPSGDAVKVTTGGVQIDVYPEREAGGPERGLTPLGLLAASLASCEVLMSRLVGRMLGYNGFDVRVAVTADVQVAEGLRSLSIRYVFKGVDIDTANLIVSKVKELCPVYNSLVRNGVSVEENVEVE | soluble
21 | MGSDKIHHHHHHMTIDLTPYLPSQGPKYLAIARALAEAIRQGELTPGTRLPPHRCLADALAVSVQTVSRAYAQAEKMGLVQARVGSGTWINTLDDSQEAEYLRSADLPTEGAPVDLSIAHPVCPPGHHLRFRETLREVADSAHPDAIDACRPIAGLAHQRERASHWLQETLGVPGTPDDRVLCNGAAHGVMLAIATLVQHGDVVLTEALTDHGLIALSRTLGLQLRGVAIDEQGVIPEALDAACRRYHPRAVCLTPTQHNPTGATMDADRRDAIAEVLARHGTWLIEDDTHALLEPPGLTPLTARLPRQSFHVTSLTKATVPGLRAGYLSVPRGQLHHTLPRLRATSWMATPLIFEIADRWLADGSVEALAEEQRQLLAERQQLTRSRLQGHVMASRPTGLHVWLALPRAWRAEELQQQALREGLAIATAQPFMVGQGAPPQRVRLSLGAENDLERFDQGLTILARLLGEAPPPMLQNV | not soluble
22 | MSLQKITVPTWAEINLDNLRFNLNNIKNLLEEDIKICGVIKADAYGHGAVEVAKLLEKEKVDYLAVARTAEGIELRQNGITLPILNLGYTPDEAFEDSIKNKITMTVYSLETAQKINEIAKSLGEKACVHVKIDSGMTRIGFQPNEESVQEIIELNKLEYIDLEGMFTHFATADEVSKEYTYKQANNYKFMSDKLDEAGVKIAIKHVSNSAAIMDCPDLRLNMVRAGIILYGHYPSDDVFKDRLELRPAMKLKSKIGHIKQVEPGVGISYGLKYTTTGKETIATVPIGYADGFTRIQKNPKVLIKGEVFDVVGRICMDQIMVRIDKDIDIKVGDEVILFGEGEVTAERIAKDLGTINYEVLCMISRRVDRVYMENNELVQINSYLLKEGHHHHHH | soluble
23 | MTKRLFLPEWAPQEAVQLTWPHDRTDWAYMLDEVETCFVRIATAILRHERLIVVCPDRKRVFGLLPPELHHRLYCFELPSNDTWARDHGGISLLADGRPMIADFAFNGWGMKFAAHHDNLITRRLHALGLFAEGVTLDNRLAFVLEGGALETDGEGTLLTTDSCLFEPNRNAGLSRTAIIDTLKESLGVSRVLSLRHGALAGDDTDGHIDTLARFVDTRTIVYVRSEDPSDEHYSDLTAMEQELKELRRPDGQPYRLVPLPMAEALYDGADRLPATYANFLIINGAVLVPTYDSHLDAVALSVMQGLFPDREVIGIDCRPLVKQHGSLHCVTMQYPQGFIRLEHHHHHH | soluble
24 | MKNNLPIIALDFASAEETLAFLAPFQQEPLFVKVGMELFYQEGPSIVKQLKERNCELFLDLKLHDIPTTVNKAMKRLASLGVDLVNVHAAGGKKMMQAALEGLEEGTPAGKKRPSLIAVTQLTSTSEQIMKDELLIEKSLIDTVVHYSKQAEESGLDGVVCSVHEAKAIYQAVSPSFLTVTPGIRMSEDAANDQVRVATPAIAREKGSSAIVVGRSITKAEDPVKAYKAVRLEWEGIKS | soluble
